The target in assay [1] is Dip (gp37, degradosome interacting protein) of giant phage φKZ, His-tagged (Pseudomonas phage φKZ). Description: AUC; analytical ultracentrifugation of Dip in solution; data not shown.
Assay [2] has the same target. The assay can be described thus: ELISA; 350 nM Dip (C-terminal his-tag) held on Ni-NTA HisSorb strips, increasing amounts of RNA degradosome, detected by anti-Strep-tag II-HRP. For orientation: An ELISA detects its analyte on a solid surface through an enzyme-linked reagent.

One may read the stoichiometry N as the number of molecules, sites or subunits per partner or assembly. For the substance “Dip (gp37, degradosome interacting protein) of giant phage φKZ, His-tagged (natural protein)”, the stoichiometry N in assay [1] was 2.

As to “RNA degradosome of P. aeruginosa, purified (C-terminal Strep-tag II on RNase E) (from UniProt Q9HZM8 1-1057) (complex)”, the Dip protomers per degradosome protomer at saturation of the signal (Dip protomers per degradosome protomer) in assay [2] worked out at 10.

(Values after paper PMC4980113.)
